In a protein production outcome set (Wang et al. 2014):

Experiment: label from the status in PepcDB records

Row | Sequence | protein production
1 | MKQGPSSEDDCFSLLKQFEHVLESDPLIDEVGFIHPSQFTMLDKEAGFSNEFQPNNGTSSKFWNQDHKLGISTDILVQLCKDAKHVFLLALQEYKSHGNACDESQIKNISCSPCIPESDVMKHSQSVLLLSSDFGTAWNARKLILSKKDHLSAFTEELRLSGLILSNSPKSESTWSHRRWIIKMISQSFSTLQEIITKESELVESIGERSKMNYRAWYHRCWLVSYMTIEQVIQELNKSKRWAGLHVADSSCFHYRRVRAAYSVDVIVRLMLKILESLYVKGSSAYDKTEARKIWKEELDWNEELVERYVGREALWLHRRFLSLNWIMYFACNHSDASPETGESIIMNEEIAIFIDNEIRLLDSSMTVPDTKFEDFQAQALHAAVYTLWLTKSIPVLWRMLEEKLGTEKVKCVLNTIAQERPSLLHHLVNV | failed
2 | MLQQQRTNSRGEKYVIGPTGAPLTLADLPPAETQRWVIRRKAEVVAAVRGGLLSLDEACDRYKLTNDEFLSWQQSIDRHGLAGLRTTRIQQYRLEHHHHHH | not failed
3 | IKILKNFDEAIIVDAASLDPESLYQRTYAGKMTFGRVSDLGQFIRESEPEPDVRKSKGSMFSQAMKKWVQGNTDEAQEELAWKIAKMIVSDIMQQAQYDQPLEKSTKL | failed
4 | HVLYSNILNRDVTISIYLPESYNQLVKYNVILCFDGLDFLRFGRIQRTYESLIKEARIDDAIIVGFHYEDVDKRREEFHPQGSRSHLTIQSVGKEILPFIDSTFSTLKVGNARLLVGDSLAGSIALLTALTYPTIFSRVAMLSPHSDDKVLDKLNQCANKEQLTIWHVIGLDEKDFTLPTNGKRADFLTPNRELAEQIKKYNITYYYDEFEGGHQWKDWKPLLSDILLYFLRKNTDDQHYE | failed
5 | MVHGLDRRLGLAGRIRPDALVADRCGTLIMLAGERFYRLDPMSGRLERIPCLGGRGDRAGELSGPRAMALGSRNLYVADTDNNRVCVFATVNWQVRRFIGAENPAGEPAAGTGPGEFDRPLDLAVDPCDNLYVLDAGNRRIQRFDYHGEPVPHVPPFGADRLKQPVALALGPAPSPSGGGALVHCLDTGLTAIVTFDDQGRFLGTVGLDDLGFEPAGLAVDADGKWYVSDRERFIYAIRSAGDWSPLEEYEGKALRLFAGPGGEFYALEDGEVARLTRRRRYPPAGSWTGSGPVTGIYTSRSFDTGDGRLFWHRVTLDATVPPKTQVRLSYFIYETGRDPELLPADGEWRSFPSNPADALFERKEGRYLRVRLELISEDRHATPTVVSLRLQFPKQSYLRYLPAVFQDDERGRDFLERFLSLFESVLYDLEREIFTTRRYADPCAVPAGFLPWLASWLALPDADQWLEDGGARLRTLIARANELYRCRGTRGGLAELITLYTGKEPWIVEAFQLDRIRGRSEWRETMRLFGEDPYHFTVLLPPGGAGRTETVKRIVARERPAHTCATVVALENLFRLGGHTYLEVNTNLNQPLFALETSSSLARQTYLADGEKAGQAQVRARQGMDTLFE | failed
6 | MEAVDLAFANYAERFARSCKGDGWRRLVERAIRLYLTPVLGKKALPAINRTDVVSVFDNMPADQVANRRNVFAVLRRLFRWAVSRGDLDRSLEHHHHHH | failed
7 | MNTGMGLIWIAGASGLLAFLTSLLYFFRQDRKFLALSEKLELIAGVGLVFAIFLLAFYLLGVDTQYSYVFQHSSTDLAWHYRFSALWAGQEGSFLIWTGFIFVMLAITRFTGTGKVLRETEIFSIMRSVSLFVASVFLLLLALKNPFSMYYYTGTGVPDVTNWNLFAEPFVVSYGQGMNPLLRNPWMAIHPPLLFLGYAAFTLPFSAAIGGLVLKDSRWSELATGWMRVSWLFLTLGIGFGAFWAYEVLGWGAWYWTWDPVETSSLIPWLTATAYLHAKLRARQGEYGFLLPMLALVSFILVIFSTFVTRSGLWVSVHSWQDFTMEGMIIALFLVVLIGSSAVLLVRKYFSEE | failed
8 | MPEVSFIICTRNRVAVLEACLKSVQAACRAHAGFAAELVVVDNGSSDRTAERLASIAAMSDIPFTPVSEPRRGLAAARNAGLRRARGRVLVFVDDDCAVHCDYLRDLERHYASGEQGLIRGGRVELGDPRDLPFTIKRSRVCERLTPDIHPGGFVLGCNMTMHRDVAARIGDFDERFGAGGPLRSAEDTDYLVRAVLLGIPVEYVPDMTIFHHHGRRDRKAIEKLHRDYSLGNGGLCLKHIRHAPWLLRHFYWAARGALRELAGGPAFDRDLDLSHRPIVGMNVLGAARYALLLLARRPQAEPARQDQQANAEAPLLEHHHHHH | failed
9 | MSNARIGIDMSKIYAPKSIDLSSFQLPDEKLQTKYGLPHKVEFCKSCVISNQRPNSAVEYEHKKESKKHTIHFDDEGICDACRVAERKKSTINWEERDRQLRELCDRFRSKDGSYDCVVPGSGGKDSFYAAHILKYKYGMNPLTVTWAPHMYTPWGWRNFQSWIHAGFDNHLFTPNGRVHRLLTRLAVENLFHPFQPFMIGQKAYAPKMALLHKIKLVVYGENEAEYGNPIGDTESAKRDWKYFTADDKSKIFLGGTSVQELKSDFGLNDNDLDAYLPADPQQIEEQQVEVHYLGYYLKWHPQSCYYYSVEHGGFEASPERTPGTYSKYNSIDDKIDDFHYYTTLTKFGIGRATYDASQEIRSGDITVEEGVALVKRFDQEFPERFAEEIFKYLSINLKEFPIASQMFEQPIMDRAYFMALADTFRSPHLWKKDGEQWKLRHQVTNLEKTKAEYLDLETV | not failed
10 | MSKRMRPSWYRDSPPKQLPYAFVPEEDDDVVILPQVDNSALLGRLQLSLVGRMFHQGGRSTEALLSFLPNIWDVEGRVRGVSLGDSRFQFFFESETDLQKVLNKRPCHFSKWSFALERWKSHIGISFPDTMTFWIKTEGIPTEFWEEEVLRNFGASIGAVRRVDSSKGRLQISVKADVPFRFNKNAQLPNGEVVKVKLFYEKLF | failed
11 | MRDILFIYLLTLGIKLYAYFLSGFTAILADAFHSVIDITMILILLLSERYAEKEADYQHPFGHEMARNVASLAVGVGFITFMFFELMKEGLLKVLHPASGYSNVEVALGAEVAVLALLVIAALISARRSGILNRTLLVESLNDSLSTLAAIVGVGLVWAGYPIFDGIATIAIAFIIFYNSFRLVRDNARLLIGMSPSEDFYRSVEDACLEIERVKGVHDMVGVYTGENSVHLDLHVTVDGAMTIEEADKLSVEIAEAIMAKHPEVKHISVHFCPHDGRRRKLY | failed
12 | MSQQQKQYDIHWLTGQFFDSSKESRYRDSIKARVRFESRLALPLVSVVVAMFGITDYNLLGLTREFYWLLTMRIAVVSSCLVLAFAIGRWGGYSRNAWLHSLPLWILATGIILIVPLRPESISTQITAVVVAIMAFYLLIPNLLTVAALASLYLTVGFLSAAAVYAGIPSENVLRVSLLLIMANIVGYCALLRIEFLQRKQFALLQDERDQNRDLLKEIKHRKSLEAQLRMVAERDALTGLDSRSHFMKRAEALLQRAQLEKTPFCLFMIDVDHFKRINDTWGHTRGDLILTKIAEVCEQSLRPTDVIGRFGGEEFVVGLPHTSPSEAQTIAERLKENVEALPLTAELSELCLSVTIGIAAAHGEEDDLDVLITRADNMLYEGKREGRNRVVMFGEGMDS | failed
13 | MLQMRTDLMAVACGRRSADLYIENGRVLNVHSGEILSGVGVAVASGRVAYVGPSRGMIGPETQFLDAEGGILVPGYVDPHAHFDNILSPRRLAEALLPLGTTMVVNDTLAVVARFGAPGLACLRAAATSLPLHFGWTVPISGWAPELEEAGYFAGLGLTDAELDVLLADETVLGTSEFLPWRRLLAGDQRLIARLDIARRHGKCCEGHNPGARADHLQVIAAAGLTDCHEALTSAEALNRLRAGLYVVLRHGPARYDLPELASLVMKEGVDRSRLMLTPDWVPPNDLAAFGHMDHPLSAAMEAGIPPLDAYRMASLNPARYFRIEGQIGSIAPGRYADILCLNDLREPRPKWVMAQGAVVARNGVPTPDWHGLDELELPAYRPSVLHASPADFRVASAGTGDVLVPAIEIMDRTVTRRIDLHLPVKDGVVSCAGEEGRVMKMAMPHPEGGFSIGFLVGVGGCLGAMSNSLASEPYHTLVIGTSDDDMAIAYNRMIELGGGVVTVQDGRIEAQLPLPLGGFMTKASAADVGAGIDAVNQWARNNGSNLENAFLTQHFLTYVGVPFFRMTPWGIYDVRKHCFLPPILNQGSEEDAL | failed
14 | MGSTFFGRPNVVGSSPPSSSPTSSSSSPATRRGKKNGSEKPKQPQRGLGVAQLEKIRLHGEMSCNSFNSYNPSLYPQVTYTNTSLHNRDSDPKASKLIKTRYICV | failed
15 | MTRPIFYDPTGRRSLLAKRSLAVVFLAVILAALAFATTLVAVPRQRALSLPQPHFEAASLHRGHGLSRLRSWLPRLHLQRSQEALAIGFYQPRSDASFQSLSRHGNQLDWVVPALLNVAGPEHRLAVSNDPRFDSFVAAGHHHYKVLPMVQNVGGDGWDGANVARILENATERHALERQLADYVARRGDAGLVLDFEDLPATAMRPYVAFLRETNALLPAGAQLAVTAPAGEDDWPIAALGRAADKVILMAYDEHWQNGAAGPIASQTWFTNEVEKSARALPADRLVIALGSYGYDWHQGGTDALSLSDAWLAAHDSHAPIIFDKASGNAGFAYEQDGVSHTVWMLDAATDWNEMLAVQRLGIGNLALWRLGTEDPGFWNDLAALRSGKAPDLSRLVSEGGNDVEGTGEILRITATPVAGSRTVAFGDQHLIRDERYGDLPTPFVVRRTGAANPKLLALTFDDGPDPKWTPKVLSTLEAAHVPATFFVIGENALVRPDLLRRMVADGDEIGNHTYTHPNLAGSSEAETRLEINATQRLVQAYTGRSMTLFRAPYFGDAEPTTADELQPALRAQQAGYTIVGLHVDPNDWQNPGTDEIVRQVVNQIHNATEQSSSNVILLHDGGGDRSQTVAALPRIVAVLRAEGYSFVTASQLVGIPPQAAMPRLSSSDLAAVRVDVAAFLALDGLVTLFSWLFFVAIALGIARAVIMAGLAWWQSRSPRAEPPAFEPTVSVIIPAWNEERVIAASVERVLASDYPALQVIVADDGSKDATSAVVARHFGHDPRVTLLTLANGGKAAALNRALRHATGEVVIALDADTQFEPLTIRRLARWFADPRIGAVAGDARVGNRVNLVTRWQAVEYITAQNLERRALAGFDAMTVVPGAVGAWRRAALDSVGGYPENTLAEDQDLTIAIQRKGWRVTYDPRAVAWTEAPQTFRALARQRYRWAFGTLQCLWKHRKVITSRKPAGLGLVGLPQAWLFQIAFAAISPLIDGALIASIISTVVRVVQHGWAQTQGDLGRMAIYWSLFTAIDVICGWIAYRLDDKRPPYPAHLLVAQRIVYRQIMYWVVLRALASAIGGWIVGWGKLERTGTVSPAPERA | failed
16 | MPPVWTLPRLYQHFQGAIDLELWTIPYYLTVLYSIKDPTTVPYRLIQAAVYQEMLHAQLVSNIANAYGYSPTLSAPEYVGTAVPHIDFDLDTPNPTSIFTPYSAELGPLDLTRVNTMCLIEYPEWRTQREPDLADDVTDYGSIGEFYDALRVGMEQLRGHVRGNQKQMDEFGPFYQNSPPLTVTESGDAGFLQALTLVDIIVDQGEGQTQPVETIPTEFQNTADGFQDAWPHFQRFDFIRRMPNWPGVYTGVTDPPAGSPGAEAQARLIADFAGFLDILNGMFSGGGAPPAFGVQMAKLGGDILSCWKLGAVPRYS | not failed
17 | MKIGVIQASTRTDLNQLLFEAVKQAAGNQHEIVNFGVFPQETENYSYVEVAIMISLLIETGAIDFMVSGCSSGQGMMMACNSLPGLQAGFIQTPQDAFLFGRINNGNVASLSLGLNFGWAGELNLQYALNELFHGEFGIGYPPEVAERKREEAQLLLTLNDITKKSFLEIIDQLDKALLFKILKRKDLTAYLFDYGSNSLLLERLQFFRN | failed
18 | MTTSGERRVAGLAMIGSAACWGSATVMSRDLLVSMTSIQLLLVQLMASVCVLLALAAPRFPWTYRSREMTKGALCGVLEPGLAYVVGLAGLAQTTAGRASIISASEPVLIVLVAWVLFNQRPGLRLMAAIAIAVGGLVLVSWSPVVEDRGGAFRGDMMVVLATLFAAGYVVISSRIVGSFPAASLASGQQMVGLAFAMLVYAGAMAHGDDMGGFGAIPGGTLAYAALSGVVQYALAFWLYLIGLRYLSAGAAGLWLTLIPVFGLAGAWLWLGERPGLLTVLGAIVIVSAVVLGNRGGTE | failed
19 | MGHHHHHHSHAAAMANNLQKGSAGPMRLYVGSLHFNITEDMLRGIFEPFGRIESIQLMMDSETGRSKGYGFITFSDSECAKKALEQLNGFELAGRPMKVGHVTERTD | not failed
